This note sets out measurements from US20220153854A1.

The target of this test is membrane bound human OX40L on CHO-KI cells (human) (UniProt P23510). The test is described as follows: cell-based or functional assay.
Sequence of membrane bound human OX40L on CHO-KI cells (human) (P23510 whole entry): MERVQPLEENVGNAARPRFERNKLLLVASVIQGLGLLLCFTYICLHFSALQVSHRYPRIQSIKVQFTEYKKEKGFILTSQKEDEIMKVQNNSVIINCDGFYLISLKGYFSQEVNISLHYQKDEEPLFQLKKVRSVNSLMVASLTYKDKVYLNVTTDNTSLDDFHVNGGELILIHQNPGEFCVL

B1: ISVD construct F027100172 (protein, part only; not given: anti-IL-13 building blocks, part only)
chain, part: DVQLVESGGGVVQPGGSLRLSCAASRSIGRYDRMGWYRHRPGEPRELVATITGGSSINYGDSVKGRFTISIDNSKNTVYLQMNSLRPEDTALYYCNFNKYQISRDTWGQGTLVTVSSGGGGSGGGSGGGGSGGGSEVQLVESGGGVVQPGGSLRLSCAASGFTFRSFGMSWVRQAPGKGPEWVSSISGSGSDTLYADSVKGRFTISRDNSKNTLYLQMNSLRPEDTALYYCTIGGSLSRSSQGTLVTVSSGGGGSGGGS
For the molecule B1, the PBMC activity assay IC50 stood at 2.5 nM, the fold better potency in the OX40L-driven PBMC activity assay against the non-affinity matured counterpart (15B07) came to 20 fold and the fold better potency in the PBMC activity assay against F-027100179 amounted to 10 fold.
